Laboratory results: PMC5829233, “PV1, a novel Plasmodium falciparum merozoite dense granule protein, interacts with exported protein in infected erythrocytes” (Scientific Reports, 2018)

T1: recombinant PfPV1 (P. falciparum Parasitophorous Vacuolar protein 1), His-tagged (P. falciparum 3D7, UniProt Q8II72 23-452)
T1 chain: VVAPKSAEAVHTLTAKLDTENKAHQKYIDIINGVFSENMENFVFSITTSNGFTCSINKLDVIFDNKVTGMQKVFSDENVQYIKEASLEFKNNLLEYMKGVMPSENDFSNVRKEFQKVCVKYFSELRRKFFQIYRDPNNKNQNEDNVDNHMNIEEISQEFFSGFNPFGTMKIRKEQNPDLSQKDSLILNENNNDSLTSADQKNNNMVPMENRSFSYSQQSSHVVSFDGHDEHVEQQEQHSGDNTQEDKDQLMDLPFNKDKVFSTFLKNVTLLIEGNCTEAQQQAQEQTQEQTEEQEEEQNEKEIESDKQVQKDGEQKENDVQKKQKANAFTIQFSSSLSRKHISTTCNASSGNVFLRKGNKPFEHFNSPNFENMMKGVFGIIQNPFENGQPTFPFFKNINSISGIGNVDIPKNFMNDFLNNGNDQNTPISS

B1: PTP5_Tr0, GST-tagged recombinant PTP5 36 aa - 631 aa (domain or fragment)
chain: TYNNYTYNGYNNDGSKQVRCKRLLSEPAVEFDTIFDVFKESFLDQMGCSDQDKDEIKNAMKIYYDNIDMNALSNEIQTNDNFFNEFGNDVNSINKIMKTDITNEQGTSADNNTTENNVSTSQVDEQPEASTSGVERMKERSNLFANNLTEEKNDTGDIKKEENKSKPSQLDGNNHSETSSHQGEKNNENETEKKTDQNETGTKKPSKYTMNLDSPLLKGSSEGETSSKKAQEKSVEPTKKPSKYTMNLDSPLLKGSSGSETSSTKESNDSNGATKKPSKYTMNLDSPLLKGSSGGKTSSNKESNESNEPTKKPSKYTMNLDSPLLKGSSGGETSSNKESNENNEPTKKPSKYTMNLDSPLLKGSSEGETSSNKESNESNEPTKKPSKYTMNLDSPLLKGSSGGETSSNKESNENNEPTKKPSKYTMNLDSPLLKGSSEGETSSNKESNESNEPTKKPSKYTMNLDSPLLKGSSEGETSSNEKQEESNVATKKPSKYTLNLDSPLLKSETKSDVKRGSNKSFSLENIGKLDIGSLLAQNLELLKGFALNFQTLSLFFLVFVGQFYPKHFQKAAIFIGMVNVFLECKRLYGRSQKKLK
notes: not shown: GST, N-terminal, kept
B2: recombinant PfPV1 (P. falciparum Parasitophorous Vacuolar protein 1), His-tagged (natural protein)
chain: T1 chain
notes: also called His-tagged purified recombinant PfPV1; not shown: His6, C-terminal, kept
B3: Pf3D7_0801000N, N-terminal truncate of Pf3D7_0801000 spanning 93 aa - 494 aa (domain or fragment)
chain: GANPESISLGYELSEKDEGNKNDLINSATDVSTELENLKERLFPELELYTNDQNSRNNTPNLRKGSLGFDSFKKLELGTLNQFDKDKMINLKDETNMNEFEGFLGRNSMASNVVTSELFDEPVDDSSSTTTSTGTKLQNVPSNDNNGELLKDEPIDDYINNNSKVESEDNYYAQQNMQSQSKDNYASEQNVADQSTDNYPTQHDVPVQLRDNYASEQEYFDRGEQLNDVSADNNTSNKLKDEPVDNNTSNKLKDEPVDNNTSNKLKDEPVDDNTSNKLKDEPVDNNTINKLKDEPVDDNTSNILKDEPVDDHAGKHLKDEPVDDHAGKHMKDEPVDIDRTNIKKGLNEQHVNPWTTTLADLKNINNSMKIEKNNKSNEQVKNTSVSKSCDIIKPSKFNKKNL

How the values were obtained:
[1] = target: recombinant PfPV1 (P. falciparum Parasitophorous Vacuolar protein 1), His-tagged (P. falciparum 3D7) (UniProt Q8II72); test: SPR; Biacore X100, CM5 chip, […]; HBS-EP+ (10 mM HEPES pH 7.4, 150 mM NaCl, 3 mM EDTA, 0.05% P20); multi-cycle kinetics, global fit
[2] = target: recombinant PfPV1 (P. falciparum Parasitophorous Vacuolar protein 1), His-tagged (P. falciparum 3D7) (UniProt Q8II72); test: SPR; Biacore X100, CM5 chip, […]; HBS-EP+ (10 mM HEPES pH 7.4, 150 mM NaCl, 3 mM EDTA, 0.05% P20); single-cycle kinetics, global fit
[3] = target: B2; test: as above; settings: both partners purified
[4] = target: B1; test: as above; settings: both partners purified
[5] = target: T1, recombinant PfPV1 (P. falciparum …); test: SPR

## PTP5_Tr1, GST-tagged recombinant PTP5 36 aa - 334 aa (domain or fragment)
[1]
  Kd: 938 nM

## PTP5_Tr2, GST-tagged recombinant PTP5 537 aa - 631 aa (domain or fragment)
[2]
  Kd: 1.24 nM

## B1
[3]
  stoichiometry N: 1

## B2
[4]
  Kd: 2.71 nM

## B3
[5]
  Kd: 45.4 nM
